Source: the nanobody polyreactivity screen of Harvey et al. (2022)

Test: yeast display, Sf9 membrane polyspecificity reagent, FACS + sequencing; frameworks hold sequencing errors
Procedure, shortened: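 A nanobody's polyreactivity label depends on the gate it was sorted from. Yeast display cells were stained with 10% biotinylated, detergent-solubilized Sf9 membrane reagent for 1 hour at 4 °C, enriched on streptavidin microbeads and sorted by FACS. The low and high (top ~1%) gates were set on anti-HA fluorescence for expression and streptavidin fluorescence for reagent binding.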

| Sequence | polyreactivity (PSR sort gate) |
| --- | --- |
| QVQLVESGGGLVQAGGSLSLSCAASGSTFYGYAMGWYRQAPGKERELVAAITRSGGSTYYADSVKGRFTISRDNAKNTVYLQMNSLTPEDTAVYYCAAERLYYYVYWGQGTQVTVSS | low polyreactivity |
| QVQLVESGGGLVQAGGSLRLSCAASGFTFGTNAMGWYRQAPGKERELVATISARGARTNYADSVKGRFTISRDNAKNTVYLQMNSLKPEDTAVYYCAADPGPHRYSYDYWGQGTQVTVSS | high polyreactivity |
| QVQRVESGGGLDQAGGSLRLSCAAYGRTFGLNAMGWYRQAPGKESELVAVISFGDGGKYYADSVKGRFTISRDNAKHTVYLQMNSLKPEDTAVYYCATEYQSTSVWGGHLVINPYDYWGQGTQVTVSS | low polyreactivity |
| QVQLVESGGGLVQAGGSLRLSCAASGSTLYRYAMGWYRQAPGKERELVAAITRGSGSTYYADSVKGRFTISRDNAKNTVYLQMNSLKPEDTAVYYCATVKRNHLDGFEYWGQGTQVTVSS | high polyreactivity |
| QVQILETGGGLVQAGGSLSLSCAASGSIFYSNAMGWYRQAPGKESEIVAAISAGGGSTYYADSVKGRFTISRDNAINTVYLQMNSLKPEDTAVYYCAAQPYKIIYPYDYWGQGTQVTVSS | low polyreactivity |
| QVQLVESGRGLVQAGVSLRLSCAASGFIFYDYAMGWYRPAPGTERELVAAISSGGSTNYADSVKGLFTISRDNAKNTVYLQMNSLKPEDTAVYYCAADVRSYATWKRDYDYWGQGTQVTVSS | low polyreactivity |
| QVQLVESGGGLVQAGGSLRLSCAASGRTFTFNVMGWYRQAPGKERELVAVITGGDDTYYADSVKGRFTISRDNAKNTVYFQMNSLKPVDTAVYYCNAAAGATTLVRPYVEFDYWGQGTQVNVSS | low polyreactivity |
| QVQLVESGGGLVQAGGSLRLSCAASGFIFDRYAMGWYRQAPGKERELVAAIDTASSTNYADSVKGRFTISRDNAKNTVDLQMNSLKPEDTAVYYCNASGYYYVIYWKVSNYNYWGQGTQVTVSS | low polyreactivity |
| QVQLVESGGGLVQAGGSLRLSCAASGRIFYTNAMGWYRQAPGKERELVAAIKWNGGRTYYADSVKGRFTISRDNAKNTVYLQMNSLKPEDTAVYYCAAGAPVDPWYSGLVVLDGMDYWGQGTQVTVSS | low polyreactivity |
| QVQLEESGGGLVQAGGSLRLSCAASGSTFYEYAMGWYRQAPGKERELVAAITTVGSTNYADSLKGRFTISRDNAKNTVYLQMNSLKPEDTAVYYCNKRPVILYDYWGLGTQVTVSS | low polyreactivity |
| QVQLVESGGGLVQAGGSLRLSCAASGSIFSTYGMGWYRQAPGKERELVAAITTSGGRTYYADSVKGRFTISRDNAKNTVYLQMKSLKPEVTAVYYCKAVRGGRYGLDYWGQGTQVNVSS | high polyreactivity |
| QVQLVESGGGLVQAGGSLRLSCAASGRIFGDYGMGWYRQAPGKERELVAAITDRGGTTYYADSVKGRFTISRDNAKNTVFLQMNSLKPEDTAVYYCNARQSDIFDYDYWGKGTQVTVSS | low polyreactivity |
| QVQLVESGGGLVQAGGSLRLSCAASGFTFYKYAMGWYRQAPGKERELVAGIRRGGTNYADSVKGRFTISRDNAKNTVYLQMNSLKPEDTAVYYCAADVRPYYSAYRGRYYYWGQGTQVTVSS | high polyreactivity |
| QVQLVESGGGLVQAGGSLRLSCAASGRIFGPYAMGWYRPATGKERELVAAISSRGSSTYYADSVKGRFTISRDNAKNTVYLQMNSLKPEDTAVYYCAARDYLAYYWGPSLYTFDYWGQGTEVTVSS | high polyreactivity |
| QVQLVESGGGLVQAGGSLRLSCAASGSIFFRYAMGWYRQAPGKVRELVANISSGGGNTYYADSVKGRFTISRDNAKNTVYLQMNSLKPEDTAVYYCARRLATRGHTYDYWGQGTQVTVSS | low polyreactivity |
| QVQLVESGGGLVQAGGSLRLSCAASGSTFRQYPMGWYRQAPGKEREMVAAITWRGDNTYYADSVKGRFTISRDNAKKTVYLQMNSLKPEDTAVYYCAARWSYRLYWGYGYWGQGTQVTVSS | low polyreactivity |
| QVQLVESGGGLVQAGCSLRLICAASGLYAMGWYRQAPGKERELVADINSSGGSITNYADSVKGRFTISRDNAKNTVYLQMNSLKPEDTAVYDCAAPALGNYFYGYDYWGQGTQVTVSS | low polyreactivity |
| QGQLVESGGGLVQAGGSLRLSCAASGRTLYYYAMGWYRQAPGKERELVAAISGGGRTYYADSVKGRFTISRDNAKKTVDLQMNSLKPEDTAVYYCAARYRKSGLDNYWGQGTQVTVSS | high polyreactivity |
| QVQLVESGGGLVQAGGSLRLSCAASGSIFVSNAMGWYRQAPGTERELVAAISGGGSTYYADSVKGRFTISRDNAKNTVFLQMNSLKPEDTAVYYCAKKGGHRTYGYDSWGQGTQVTVSS | low polyreactivity |
| QVHLVESGGGLVQAGGSLRLSCAASGRTFNVYAMGWYRQAPGKERELVASISSSDTTNYADSVKGRFTISRDNAKNTVYLQMNSLKPEDTAVYYCAADYTPDLLSKVDYWGQGTQVTVSS | low polyreactivity |
| QVQLVESGGGLVQAGGSLRLSCAASGSILRRNTMGWYRQAPGKERELVAAINKSGGSTYYADSVKGRFTISRDNAKNTVYLQMNSLKPEDTAVYYCNRDNYYGTKYDYWGQGTQVTVSS | low polyreactivity |
| QVQLVESGGGLVQAGGSLRLSCAASGRTFGTNALGWYRQAPGKERELVASIDLSADSTYYADSVKGRFTISRDNAKKTVYLQMNSLKPEDTAVYYCNKDGYPWPPNLDYWGQGTQVTVSS | low polyreactivity |

| Sequence | polyreactivity (PSR sort gate) |
| --- | --- |
| QVQLVESGGGLVQAGGSLRLSCAASGYTFIRNGMGWYRQAPGKERDLVAAISRRGGSTYYADSVKGRFTISRDNAKNTVYLQMNRLKPEDTAVYYCAKASTERMGSWGQGTQVTVSS | high polyreactivity |
| QVQLVESGGGLVQAGGSLRLSCAASGFIFDDNAMGWYRQAPGKERELVAAITSGGGTTYYADSVKGRFTISRDTAKNTVYLQMNSLKPEDTAVYYCNAVPSQHDEFDYWGQGTQVTVSS | low polyreactivity |
| QVQLVESGGGLVQAGGSLRLSCAASGRTFRYYAKGWYRQAPGKERELVAAITVTVTSTFYADSVKGRFTISRDNAKNTVYLQMNSLKPEDTAVYYCAKVDRQSPGQYYYWGQGTQVTVSS | low polyreactivity |
| LVQLVESGGGLVQAGGSLRLSCAASGIIFRDNAMGWYRQAPGKERELVAAIDSSGGTTYADSVMGRFTISRDNAKNTVYLQMNSLKPEDTAVFYCATEVYWTVSYYGYDYYGGNYYYWGQGTQVTVSS | low polyreactivity |
| QVQLVESGGGLVQAGGSLRLSCAASGSTFWVNAMGWYRQAPGKERELVAAISNSGGSTYYADSVKGRFTISRDNAKNTVYLQMNSLKPEDTAVYYCAAAGGVDYDYWGQGTQVTVSS | low polyreactivity |
| QVQLVESGGGLVQAGGSLRLSCAASGRIFTGNARGWYRQAPGKERELVAGISTSGGSTYYADSVKGRFTISRDNAKNTVYLQMTSLTPEDTAVYYCAAAYVHYVYKYDYWGQGTQVTVSS | high polyreactivity |
| QVQLVESGGGLVQAGGSLRLSCAASGSIFWYYAMGWYRQAPGKERELVASISSSGGSTYYADSVKGRFTISRDNAKNTVYLQMNSLKPEYTAVYYCAKRTNWGYWYNSWGQGTQVTVSS | high polyreactivity |
| QDQLVESGGGLVQAGGSLRLSCAASGRIFDDTAMGWSRPAPGKERELVAAITGGGRTNYADSVKGRFTISRDNAKNTVYLQMNSLKPEDTAVYYCAAATYGWVIYIYDYWGQGTQVTVSS | low polyreactivity |
| QVQLVESGGGLVQAGGSLRLSSAASGRIFSRNGMGWYRPAPGKERELVAAIRRYGGSTYYADSVKGRFTISRDNEKNTVNLQMNSLKAEDTAVFFCAAEPYGGGVKHSAYDYWGQGTQVTVSS | low polyreactivity |
| QVQLVESGGGLVKAGGSLRLSCAASGSTFWYNAMGCYRQAPRKERELVAAITRGASTNYADSVKGRFTISRDNAKNTVYLQMNCLKPEDTAVYYCAGGPARWKGYYWGQGTQVTVSS | high polyreactivity |
| QVQLVESGGGLDQAGGSLRLSCAASGRIFYQNAMGWYRQAPGKERELVAAITSSGVSTYYADSVKGRFTISRDYAKNTVYLQMNSLKPEDTAVYYCAAYRVGYGGYSYYYWGQGTQVTVSS | high polyreactivity |
| QVQLVESGGGLVQAGRSLRLICAASGSTFKRYAMGWYRQAPGKERELVAAITWTGGRTYYADSVKGRFTISRDNANYTVYLQMNSLKPEDTAVYYCAADDPHTAYGYWGQGTQVTVSS | high polyreactivity |
| QDQLVESGGCLVQAGGSLRLSCAASGGTFLYYAMGWYRQAPGKERELVAAISRGGSTHYADSVKGRFTISRDNAKNTVYLQMNSLKPEDTAVYYCAAVRSHRKRINFYDYWGQGTQVTVSS | low polyreactivity |
| QVQLVESGGGLVQAGGSLRLSCAASGSIFASNAMGWYRQAPGKEREFVAAITWRTDRTYYADSVKGRFTISRDNAKNTVYLQMNSLKPEDNAVYYCAADTWFDRFYYWGQGTQVTVSS | high polyreactivity |
| QVQLVESGGGLVQAGGSLRLSCAASGSTFSAYAMGWYRQAPGKERELVAAISRSGTRTYYADSVKGRFTISRDNAKNNVYLQMNSLKPEDTAVYYCARYAGRLSYRYEYWGQGTQVTVSS | high polyreactivity |
| QVQLVESGGGLVQAGGSLRLSCAASGSTFIFYVMVWYRQAPGKERELVASITGNGTSTYYADSVKGRFTISRDNAKNTVYLQMNSLKPEDSAVYYCNAVFSPSRYDYWGQGTQVTVSS | low polyreactivity |
| QVQLVESGGGLDQAGGSLRLSCAASGSTFNWYTMGWYRQAPGKERELVAAISLNGGRTYYADSVKGRFTISRDNAKNTVYFQMNSLKQEDTAVYYCAAQISFYFAQYNLARFRGYYWGQGTQVTVSS | high polyreactivity |
| QVQLVESGGGLVQAGGSLRLSCAASGFIFSPYAMGWYRQAPGKERELVAAISSGGSTYYADSVKGRFTISRDNAKNTVYLQMNSLKPEDTAVYYCAASWGRRKPRMDYWGLGTQVTVSS | high polyreactivity |
| QVQLVESGGCLVQAGGSLRLSCAASGITYLEYAMGWYIQAPGKERELVATINSGGSTNYADSVKGRFTISRDNAKNTVYLQMNSLKPEDTAVYYCAAVVSDYVWRYEYWGQGTQVTVSS | low polyreactivity |
| QVQLVESGGGLVQAGGSLSLSCAATGSIFLHNAMGWYRQAPGKERELVAVITSRGGSTYYADSVKGRFTISRDNAKNTVYLQMNSLKPEDTAVYYCAAPAYHKRTSRGDYWGQGTQVTVSS | low polyreactivity |
| QVQLVESGGGLVQAGGSLRLSCAASGRIIDFYTMGWYRQAPGKERELVAGINGSGASTYYADSVKGRFTISRDNAKNTVYLQMNCLKPEDTAVYYCAKDPGYYDDYDYWGQGTQVTVSS | low polyreactivity |
